T1: FANCI (chicken, UniProt B0I564 1-1338)
T1 sequence: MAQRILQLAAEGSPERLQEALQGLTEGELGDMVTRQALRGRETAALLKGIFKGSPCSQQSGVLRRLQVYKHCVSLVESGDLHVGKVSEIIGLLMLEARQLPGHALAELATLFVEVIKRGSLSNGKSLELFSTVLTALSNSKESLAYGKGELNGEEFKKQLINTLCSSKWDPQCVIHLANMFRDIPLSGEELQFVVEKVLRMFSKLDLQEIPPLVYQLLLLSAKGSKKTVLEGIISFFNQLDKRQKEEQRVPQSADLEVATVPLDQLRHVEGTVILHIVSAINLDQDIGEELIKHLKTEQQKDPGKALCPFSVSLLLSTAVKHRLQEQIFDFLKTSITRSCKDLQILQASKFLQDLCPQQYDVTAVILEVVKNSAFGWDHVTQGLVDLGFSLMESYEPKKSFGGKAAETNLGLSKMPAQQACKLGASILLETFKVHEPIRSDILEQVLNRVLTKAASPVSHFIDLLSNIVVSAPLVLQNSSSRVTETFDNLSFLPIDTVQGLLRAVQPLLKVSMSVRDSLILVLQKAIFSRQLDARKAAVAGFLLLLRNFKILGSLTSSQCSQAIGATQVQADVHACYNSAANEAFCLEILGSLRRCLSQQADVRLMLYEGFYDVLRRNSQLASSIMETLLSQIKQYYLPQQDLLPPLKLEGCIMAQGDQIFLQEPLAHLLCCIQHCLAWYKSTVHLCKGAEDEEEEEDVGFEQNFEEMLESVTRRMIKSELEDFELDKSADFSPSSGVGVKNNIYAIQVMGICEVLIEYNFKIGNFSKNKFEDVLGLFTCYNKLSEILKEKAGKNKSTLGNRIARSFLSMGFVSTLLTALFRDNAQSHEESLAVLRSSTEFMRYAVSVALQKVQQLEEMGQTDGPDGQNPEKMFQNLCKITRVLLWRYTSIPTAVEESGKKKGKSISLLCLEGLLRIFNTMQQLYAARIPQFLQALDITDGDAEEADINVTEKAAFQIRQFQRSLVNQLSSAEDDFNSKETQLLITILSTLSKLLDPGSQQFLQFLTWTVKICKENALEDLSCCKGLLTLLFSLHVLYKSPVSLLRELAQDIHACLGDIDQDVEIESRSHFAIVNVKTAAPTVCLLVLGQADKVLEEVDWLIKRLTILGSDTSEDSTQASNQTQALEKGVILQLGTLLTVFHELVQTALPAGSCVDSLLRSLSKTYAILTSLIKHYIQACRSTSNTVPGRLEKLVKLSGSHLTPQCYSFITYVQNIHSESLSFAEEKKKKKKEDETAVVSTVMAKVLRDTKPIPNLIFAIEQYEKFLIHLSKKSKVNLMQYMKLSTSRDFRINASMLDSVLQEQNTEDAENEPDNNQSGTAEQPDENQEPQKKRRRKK

T2: GST-FANCL (chicken, UniProt Q3MUH5 1-373)
T2 sequence: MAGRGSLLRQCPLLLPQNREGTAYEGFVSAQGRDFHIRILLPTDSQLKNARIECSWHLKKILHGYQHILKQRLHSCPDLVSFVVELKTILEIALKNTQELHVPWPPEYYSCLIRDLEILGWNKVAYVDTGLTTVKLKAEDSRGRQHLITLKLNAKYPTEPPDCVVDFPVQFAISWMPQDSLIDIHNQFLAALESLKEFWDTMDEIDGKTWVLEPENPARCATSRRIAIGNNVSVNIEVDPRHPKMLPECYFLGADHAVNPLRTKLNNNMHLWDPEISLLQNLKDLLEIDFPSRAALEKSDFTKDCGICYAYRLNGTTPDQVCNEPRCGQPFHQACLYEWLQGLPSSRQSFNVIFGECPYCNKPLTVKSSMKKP

B1: synthetic Holliday junction (HJ) (structured_DNA)
DNA 1: ATCGATGTCTCTAGACAGCTGCTCAGGATTGATCTGTAATGGCCTGGGA
DNA 2: GTCCCAGGCCATTACAGATCAATCCTGAGCATGTTTACCAAGCGCATTG
DNA 3: TGATCACTTGCTAGCGTCGCAATCCTGAGCAGCTGTCTAGAGACATCGA
DNA 4: CCAATGCGCTTGGTAAACATGCTCAGGATTGCGACGCTAGCAAGTGATC
B2: 5' flapped DNA (structured_DNA)
DNA 1: B1 DNA 1
DNA 2: B1 DNA 2
DNA 3: CAATGCGCTTGGTAAACA

What was measured:
Experiment in all cases: EMSA
FANCI = biological target: T1, FANCI
FANCI;FANCD2 = FANCI;FANCD2 (chicken;chicken, UniProt B0I564;Q68Y81 1-1338;1-1439, |)
UBE2T = UBE2T (human, UniProt Q9NPD8 1-197)
GST-FANCL = biological target: T2, GST-FANCL

UBE2T, sequence (Q9NPD8 whole entry): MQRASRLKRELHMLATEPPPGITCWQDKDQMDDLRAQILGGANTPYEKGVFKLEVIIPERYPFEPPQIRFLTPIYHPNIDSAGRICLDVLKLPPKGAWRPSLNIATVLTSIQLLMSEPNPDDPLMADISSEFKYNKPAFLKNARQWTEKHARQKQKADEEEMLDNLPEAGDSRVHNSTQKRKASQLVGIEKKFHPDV
FANCI;FANCD2, sequence (Q68Y81 whole entry, one chain of several): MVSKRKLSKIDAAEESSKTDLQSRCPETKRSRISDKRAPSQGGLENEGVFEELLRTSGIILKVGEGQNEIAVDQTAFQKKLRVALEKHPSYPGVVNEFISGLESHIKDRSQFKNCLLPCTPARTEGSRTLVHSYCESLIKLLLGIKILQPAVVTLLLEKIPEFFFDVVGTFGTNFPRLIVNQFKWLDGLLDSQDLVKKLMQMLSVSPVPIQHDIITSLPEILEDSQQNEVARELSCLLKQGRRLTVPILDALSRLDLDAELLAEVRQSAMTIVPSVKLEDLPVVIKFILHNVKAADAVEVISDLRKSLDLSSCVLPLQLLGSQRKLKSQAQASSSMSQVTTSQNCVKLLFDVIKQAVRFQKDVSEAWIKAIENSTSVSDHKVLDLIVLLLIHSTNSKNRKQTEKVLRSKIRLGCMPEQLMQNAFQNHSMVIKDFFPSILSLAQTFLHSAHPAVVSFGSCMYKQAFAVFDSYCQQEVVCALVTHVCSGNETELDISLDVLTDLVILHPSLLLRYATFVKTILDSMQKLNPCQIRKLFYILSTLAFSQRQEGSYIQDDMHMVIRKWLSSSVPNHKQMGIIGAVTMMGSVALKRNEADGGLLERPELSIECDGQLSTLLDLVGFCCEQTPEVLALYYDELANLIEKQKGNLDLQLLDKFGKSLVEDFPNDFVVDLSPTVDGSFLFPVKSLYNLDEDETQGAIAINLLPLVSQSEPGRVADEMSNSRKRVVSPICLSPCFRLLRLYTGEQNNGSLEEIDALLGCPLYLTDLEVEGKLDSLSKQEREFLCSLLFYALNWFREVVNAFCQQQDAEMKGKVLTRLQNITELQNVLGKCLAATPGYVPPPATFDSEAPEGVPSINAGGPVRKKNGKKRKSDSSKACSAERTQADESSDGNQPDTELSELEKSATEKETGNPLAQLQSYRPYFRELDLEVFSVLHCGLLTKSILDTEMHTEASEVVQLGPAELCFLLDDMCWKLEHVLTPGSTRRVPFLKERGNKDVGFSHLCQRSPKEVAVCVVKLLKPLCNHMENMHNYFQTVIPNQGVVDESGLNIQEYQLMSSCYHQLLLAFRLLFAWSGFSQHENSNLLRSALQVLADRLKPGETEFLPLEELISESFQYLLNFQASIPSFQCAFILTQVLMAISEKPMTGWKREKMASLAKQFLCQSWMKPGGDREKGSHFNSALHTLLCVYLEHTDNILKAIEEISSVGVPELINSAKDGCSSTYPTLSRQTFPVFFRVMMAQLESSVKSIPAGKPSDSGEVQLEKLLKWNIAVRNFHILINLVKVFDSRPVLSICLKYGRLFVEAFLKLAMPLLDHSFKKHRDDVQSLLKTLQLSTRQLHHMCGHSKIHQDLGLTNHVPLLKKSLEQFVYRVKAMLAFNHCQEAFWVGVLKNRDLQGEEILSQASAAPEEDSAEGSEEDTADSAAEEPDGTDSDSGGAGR

Binder | binding result (FANCI) | binding result (FANCI;FANCD2) | binding result (UBE2T) | binding result (GST-FANCL)
B1 | binds | – | – | –
B2 | – | binds | no binding | no binding

— paper PMC3378891
